The values below are quoted from earlier work in paper PMC3295331.

pKd: −log10 of the molar value.

The target in this series is Cav3.1 (UniProt O54898).
Sequence of UniProt O54898 (O54898 whole entry): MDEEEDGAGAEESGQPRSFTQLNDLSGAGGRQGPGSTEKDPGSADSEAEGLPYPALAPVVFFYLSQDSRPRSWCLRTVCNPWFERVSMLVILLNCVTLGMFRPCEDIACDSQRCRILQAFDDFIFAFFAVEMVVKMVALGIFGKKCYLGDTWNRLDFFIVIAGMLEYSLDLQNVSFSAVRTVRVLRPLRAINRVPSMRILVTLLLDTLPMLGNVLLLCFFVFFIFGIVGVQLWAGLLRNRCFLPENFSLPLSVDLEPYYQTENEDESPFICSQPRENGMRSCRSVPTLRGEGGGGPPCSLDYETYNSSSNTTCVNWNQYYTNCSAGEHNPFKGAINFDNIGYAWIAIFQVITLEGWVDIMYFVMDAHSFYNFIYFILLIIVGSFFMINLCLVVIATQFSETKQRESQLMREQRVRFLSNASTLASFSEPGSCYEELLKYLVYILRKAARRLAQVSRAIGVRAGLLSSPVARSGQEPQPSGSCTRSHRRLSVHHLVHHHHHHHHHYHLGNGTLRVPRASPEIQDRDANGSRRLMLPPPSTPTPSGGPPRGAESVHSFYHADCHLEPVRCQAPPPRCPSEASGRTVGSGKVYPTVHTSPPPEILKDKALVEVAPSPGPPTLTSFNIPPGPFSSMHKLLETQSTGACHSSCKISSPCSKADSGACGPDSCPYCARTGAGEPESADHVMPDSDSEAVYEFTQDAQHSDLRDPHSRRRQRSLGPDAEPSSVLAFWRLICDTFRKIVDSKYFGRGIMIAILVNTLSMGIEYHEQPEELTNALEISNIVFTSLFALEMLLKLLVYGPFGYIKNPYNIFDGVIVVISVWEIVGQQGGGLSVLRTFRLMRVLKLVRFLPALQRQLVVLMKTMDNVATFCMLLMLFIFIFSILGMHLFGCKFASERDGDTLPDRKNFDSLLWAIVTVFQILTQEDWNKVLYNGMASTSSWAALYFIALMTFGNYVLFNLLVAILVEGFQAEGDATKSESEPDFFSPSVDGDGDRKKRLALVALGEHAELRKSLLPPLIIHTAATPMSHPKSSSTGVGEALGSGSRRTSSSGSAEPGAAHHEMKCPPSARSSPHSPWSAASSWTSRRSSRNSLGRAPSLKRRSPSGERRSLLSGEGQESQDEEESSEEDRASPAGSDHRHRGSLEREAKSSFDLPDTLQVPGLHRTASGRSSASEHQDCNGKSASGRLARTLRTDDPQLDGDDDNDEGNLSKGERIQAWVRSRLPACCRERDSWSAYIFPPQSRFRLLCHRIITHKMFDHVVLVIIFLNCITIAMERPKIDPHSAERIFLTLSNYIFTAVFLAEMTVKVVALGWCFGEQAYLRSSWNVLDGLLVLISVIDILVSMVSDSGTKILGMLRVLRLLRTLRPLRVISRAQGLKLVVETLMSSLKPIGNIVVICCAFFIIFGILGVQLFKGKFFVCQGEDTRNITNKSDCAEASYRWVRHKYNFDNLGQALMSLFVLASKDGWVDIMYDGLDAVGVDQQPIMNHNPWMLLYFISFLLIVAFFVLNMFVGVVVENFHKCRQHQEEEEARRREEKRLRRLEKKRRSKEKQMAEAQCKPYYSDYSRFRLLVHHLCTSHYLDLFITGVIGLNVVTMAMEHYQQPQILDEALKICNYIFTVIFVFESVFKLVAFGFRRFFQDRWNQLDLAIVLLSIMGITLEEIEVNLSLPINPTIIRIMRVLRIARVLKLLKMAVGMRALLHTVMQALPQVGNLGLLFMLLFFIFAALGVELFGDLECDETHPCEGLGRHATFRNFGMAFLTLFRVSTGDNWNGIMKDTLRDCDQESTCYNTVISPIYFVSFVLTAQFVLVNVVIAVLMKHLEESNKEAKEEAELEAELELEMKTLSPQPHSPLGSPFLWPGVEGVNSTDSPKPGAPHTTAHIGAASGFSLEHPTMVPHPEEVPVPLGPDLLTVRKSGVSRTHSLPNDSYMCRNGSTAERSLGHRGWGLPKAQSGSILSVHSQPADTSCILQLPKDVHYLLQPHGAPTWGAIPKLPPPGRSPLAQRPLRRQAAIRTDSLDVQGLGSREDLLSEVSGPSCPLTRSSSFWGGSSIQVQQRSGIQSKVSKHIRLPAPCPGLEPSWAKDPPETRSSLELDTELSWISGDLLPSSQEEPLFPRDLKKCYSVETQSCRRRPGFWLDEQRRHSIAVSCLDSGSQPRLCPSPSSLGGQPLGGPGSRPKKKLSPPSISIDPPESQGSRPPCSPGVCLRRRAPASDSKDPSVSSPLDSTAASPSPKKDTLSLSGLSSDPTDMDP

On to Kurtoxin (from UniProt P58910), for which the pKd (commonly −log10 of the Kd, conventionally taken in molar units) was 7.82.
